Values of other authors in article PMC12564133.

Molecular target: BKCa channel (UniProt Q12791)
Chain of UniProt Q12791 (Q12791 whole entry): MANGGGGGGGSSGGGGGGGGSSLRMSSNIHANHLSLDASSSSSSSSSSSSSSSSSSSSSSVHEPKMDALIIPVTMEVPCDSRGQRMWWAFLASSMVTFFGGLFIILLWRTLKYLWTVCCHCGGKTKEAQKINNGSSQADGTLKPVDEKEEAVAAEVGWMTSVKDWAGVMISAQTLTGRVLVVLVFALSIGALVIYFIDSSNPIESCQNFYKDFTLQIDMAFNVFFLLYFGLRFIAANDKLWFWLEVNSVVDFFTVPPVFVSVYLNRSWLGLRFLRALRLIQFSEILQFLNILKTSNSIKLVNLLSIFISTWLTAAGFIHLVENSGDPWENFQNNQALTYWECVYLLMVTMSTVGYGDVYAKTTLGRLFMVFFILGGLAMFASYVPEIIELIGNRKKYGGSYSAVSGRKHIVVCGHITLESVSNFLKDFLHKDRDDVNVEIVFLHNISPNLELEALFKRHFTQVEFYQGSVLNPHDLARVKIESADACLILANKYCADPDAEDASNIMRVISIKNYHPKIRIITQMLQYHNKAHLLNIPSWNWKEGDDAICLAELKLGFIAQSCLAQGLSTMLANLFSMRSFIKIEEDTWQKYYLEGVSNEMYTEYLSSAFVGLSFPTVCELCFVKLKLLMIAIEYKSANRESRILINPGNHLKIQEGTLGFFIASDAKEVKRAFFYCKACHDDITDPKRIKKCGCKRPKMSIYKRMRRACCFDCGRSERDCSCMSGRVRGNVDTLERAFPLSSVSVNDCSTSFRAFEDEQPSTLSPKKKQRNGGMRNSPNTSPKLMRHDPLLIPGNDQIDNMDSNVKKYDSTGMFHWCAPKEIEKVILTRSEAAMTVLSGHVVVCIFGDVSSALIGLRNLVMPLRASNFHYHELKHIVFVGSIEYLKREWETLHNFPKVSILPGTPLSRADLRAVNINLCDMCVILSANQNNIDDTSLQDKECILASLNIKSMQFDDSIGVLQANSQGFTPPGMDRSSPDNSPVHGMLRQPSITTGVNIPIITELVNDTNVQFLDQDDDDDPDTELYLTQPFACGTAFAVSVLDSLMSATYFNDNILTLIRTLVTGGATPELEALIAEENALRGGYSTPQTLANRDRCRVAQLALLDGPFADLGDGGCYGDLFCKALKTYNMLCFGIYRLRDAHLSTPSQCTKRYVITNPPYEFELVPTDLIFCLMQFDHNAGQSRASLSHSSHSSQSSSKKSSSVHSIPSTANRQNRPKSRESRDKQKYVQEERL

## Iberiotoxin (IbTX) (from UniProt P24663)
  Kd: 1.16 nM
